Experimental data taken from PMC12307675.

Target: recombinant SARS-CoV-2 spike protein (SARS-CoV-2) (UniProt P0DTC2)
Experiment: SPR

**Q.** With “full-length HMGB1 (HMGB1-WT), 6x His-tagged (from UniProt P09429 1-215) (natural protein)” as the substance, how does the Kd read?
**A.** 3550 nM

**Q.** How did the Kd turn out when “acidic C-tail-deleted HMGB1 (HMGB1-ΔC, aa 1–186), 6x His-tagged (from UniProt P09429 1-186) (domain or fragment)” was run?
**A.** 1380 nM

**Q.** Which Kd does the source give for “HMGB1-B box (aa 89–162), 6x His-tagged (from UniProt P09429 89-162) (domain or fragment)” here?
**A.** 1020 nM

**Q.** For “HMGB1-A box (aa 1–79), 6x His-tagged (from UniProt P09429 1-79) (domain or fragment)”, which Kd is on record?
**A.** 6100 nM
